Here are results for two molecules from PMC4788097 (Structure (London, England : 1993), 2013).

Experiment [1] has as its target T1, Stx6 (3-110) (human, UniProt O43752 3-110).
T1 sequence (looked up): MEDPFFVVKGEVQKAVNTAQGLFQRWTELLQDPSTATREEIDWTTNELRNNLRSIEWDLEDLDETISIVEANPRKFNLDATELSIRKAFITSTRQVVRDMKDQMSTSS
Put plainly: crystal structure.

For a further experiment, the target named is T2, Stx10 (1-110) (human, UniProt O60499 1-110).
T2 sequence (looked up): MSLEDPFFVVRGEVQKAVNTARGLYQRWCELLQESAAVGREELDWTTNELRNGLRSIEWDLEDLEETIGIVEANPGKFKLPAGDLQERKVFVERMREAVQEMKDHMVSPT
Put plainly: ITC. Background: ITC needs no label: the signal is the heat of the interaction.

Experiment [2] addresses T1, Stx6 (3-110). Put plainly: ITC.

For the molecule AHGMLKLYYGLSEGEAA [Ang2 peptide 33AHGMLKLYYGLSEGEAA49], the binding result with Stx6 (3-110) [1] was “binds”.

B1: Ang2 (1-69) (domain or fragment, human, UniProt Q9UID3 1-69, looked up)
chain: MAAAAAAGPSPGSGPGDSPEGPEGEAPERRRKAHGMLKLYYGLSEGEAAGRPAGPDPLDPTDLNGAHFD
For B1, in the experiment with Stx10 (1-110), the Kd (as a rule, the concentration at which binding is half-saturated) was 6.5 ± 0.8 µM and the stoichiometry N (usually a count of units in the complex or per binding partner) worked out at 0.7. Also, in the experiment with Stx6 (3-110) [2], the dissociation constant (Kd) came to 5.6 ± 0.7 µM and the “stoichiometry N” value was determined as 0.8.
